Measurements reported in the supplement of paper PMC12764529.
± gives the half width of the 95% confidence interval.

How the values were obtained:
[1] = folding stability dG unfold from chymotrypsin proteolysis; higher = more stable
Summary of the method: (§1)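 Unfolding free energy was derived, per protease or combined, against a sequence-predicted unfolded-state K50 and a shared folded-state K50, starting from K50 inferred by Bayesian fitting of sequencing counts. Digestion with trypsin and chymotrypsin was carried out on designed mini-proteins under 80 residues without cysteine in a PA-tagged cDNA display construct. Only designs with AlphaFold2 dimer inter-PAE above 15 were kept.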

[2] = folding stability dG unfold from trypsin proteolysis; higher = more stable
Summary of the method: as §1

[3] = folding stability dG unfold (combined trypsin and chymotrypsin); higher = more stable
Summary of the method: as §1

Sequence	folding stability dG unfold [1] [kcal/mol]	folding stability dG unfold [2] [kcal/mol]	folding stability dG unfold [3] [kcal/mol]
SAGGSAGGSAGKPNIKKEANLEIFVTEDELEKALEIVKKLEEEGIEVKEAKIYVLKPEEGSAGGSAGGSAGG [r11_533_TrMRF]	-0.299 ± 0.39	-0.858 ± 0.23	-0.318 ± 0.21
SAGGSAGGSAGKQPIEMWFMFPNGVAIVLRIKVDPPSPKAKIDAIEVVPVRDPDNGKWRFSAGGSAGGSAGG [r11_919_TrROS]	1.85 ± 0.1	0.566 ± 0.11	1.38 ± 0.14
SAGGSAGGSAGKTIYAPYSKIPEVIEELKKKGYEIDSIEKVPNGSYKISFKNKPIEINLGSAGGSAGGSAGG [r17_379_TrMRF]	3.83 ± 0.048	3.24 ± 0.078	3.65 ± 0.088
SAGGSAGGSAGKTYTFRVRIVDEETGEEKEIEVTAKSEEEAKKAAEELKKKYPNLKVELESAGGSAGGSAGG [r11_233_TrROS_Hall]	3.24 ± 0.036	2.98 ± 0.13	3.22 ± 0.14
SAGGSAGGSAGKVTLVFKTKEDALNAIKELAEKEGLKVKIVKIEELPNGLIKITVEIEKPSAGGSAGGSAGG [r11_304_TrROS_Hall]	4.2 ± 0.095	3.99 ± 0.25	4.22 ± 0.17
SAGGSAGGSAGKWKTITILIPNMPVEEIADRIMDKFGPGIRITEITPNKPGWFWITIIVRSAGGSAGGSAGG [r11_580_TrROS]	3.823 ± 0.037	3.29 ± 0.075	3.62 ± 0.069
SAGGSAGGSAGLAEKLRDEIRESIKGPDGLEVPDDVELLSIDVPEDSAFVEVRFPADLPVSAGGSAGGSAGG [r17_519_TrMRF]	0.233 ± 0.02	0.436 ± 0.025	0.363 ± 0.089
SAGGSAGGSAGLDNIKPEELKKLFPGYKVYLLKVEEVGGKLKVDVKILKYNPSTNTWTPESAGGSAGGSAGG [r11_20_TrMRF]	1.59 ± 0.14	1.13 ± 0.044	1.48 ± 0.11
SAGGSAGGSAGLEIKIPNGNKTITVEKTKDYYKATIYFPETGEKVEFTFPPNVSLSLLDISAGGSAGGSAGG [r11_772_TrMRF]	1.12 ± 0.073	1.98 ± 0.11	1.62 ± 0.18
SAGGSAGGSAGLPEEIADFVKEILEKAFPNVKVLEVEVEELPEGFYVVRARFEDGSEVEFPISAGGSAGGSA [r18_423_TrMRF]	3.47 ± 0.059	4.29 ± 0.091	3.88 ± 0.069
SAGGSAGGSAGLPENVKLVKVTVTITYPNGEKETIPVVAPVPVLEKLLSLPGLPVSVTDESAGGSAGGSAGG [r17_313_TrMRF]	0.0595 ± 0.071	0.465 ± 0.028	0.333 ± 0.12
SAGGSAGGSAGLPGAEKARKPKPKVKVKVTLTVLPDGTLVLRVTFEDGTTKTITLKLHPDLLSAGGSAGGSA [r18_192_TrMRF]	3.55 ± 0.11	2.37 ± 0.13	3.08 ± 0.24
SAGGSAGGSAGLPPGDYRLFPFTVTITIPPIKVKDPNGDEHEIDNLEISITIYFFVPAGDSAGGSAGGSAGG [r11_907_TrROS]	4.58 ± 0.12	3.43 ± 0.15	4.03 ± 0.34
SAGGSAGGSAGLTKPVEVEVEEDGTVTIKTLSIVPVDDGYELHEETTEIPLSPEEIAALQSAGGSAGGSAGG [r17_415_JUSTAS]	-0.158 ± 0.33	0.504 ± 0.035	0.327 ± 0.17
SAGGSAGGSAGMEPPEIKVEVSSDPTPSGMKVETIKDLGKGKTIIVLKPEDGSVSTSTLESAGGSAGGSAGG [r11_55_JUSTAS]	0.286 ± 0.13	-0.0544 ± 0.19	0.0414 ± 0.44
SAGGSAGGSAGMETIRLTFTVPGPDDRYYRVSVEARINPPTGEIEILRVEITPLDNPDAISAGGSAGGSAGG [r11_777_TrMRF]	3.93 ± 0.035	3.09 ± 0.12	3.69 ± 0.052
SAGGSAGGSAGMEVILLEVDSEEEAEKLVKELSEKYGYPVKVEKDPENPKLVTLTIEKPKSAGGSAGGSAGG [r11_797_JUSTAS]	1.16 ± 0.039	1.41 ± 0.066	1.36 ± 0.067
SAGGSAGGSAGMEYSIDKASGKILIKIPDEDKTWILYDPKTGEKYIFKQIGGKWYKVEKVSAGGSAGGSAGG [r11_1036_TrMRF]	1.87 ± 0.14	1.57 ± 0.058	1.91 ± 0.26

Sequence	folding stability dG unfold [1] [kcal/mol]	folding stability dG unfold [2] [kcal/mol]	folding stability dG unfold [3] [kcal/mol]
SAGGSAGGSAGMGVPPDGATLRFTYPESPSSTRTFTSPEEAAAWIAANLPPEHSVSFSPASAGGSAGGSAGG [r11_983_JUSTAS]	0.863 ± 0.12	0.25 ± 0.1	0.684 ± 0.084
SAGGSAGGSAGMITIERIPGSGKLVITITDPGSGKVLTIPFDNADPKEALAKAKELLKKLSAGGSAGGSAGG [r17_386_JUSTAS]	3.19 ± 0.048	3.25 ± 0.071	3.25 ± 0.075
SAGGSAGGSAGMKEGEKPKVKIEIDVLIEVDGKLYRVRAEAEINEDGEITIKVEIEELPDSAGGSAGGSAGG [r11_551_TrROS_Hall]	3.65 ± 0.11	2.4 ± 0.11	3.3 ± 0.12
SAGGSAGGSAGMKELEITIIDKKTGKPLKVKVTLVEVDGKLYLVIEVYKNGKPLETYVLPSAGGSAGGSAGG [r11_631_TrROS_Hall]	3.2 ± 0.072	2.29 ± 0.12	3 ± 0.18
SAGGSAGGSAGMKIEKNKDGKLRIIIYNKNGKKVKEIEMSVEEAKKLAEKNNFEIVKIEPSAGGSAGGSAGG [r11_521_TrROS_Hall]	0.966 ± 0.41	1.02 ± 0.093	1.09 ± 0.21
SAGGSAGGSAGMKIRIELPGMSPEQIEELAKLIPNVRVSITYDKETNRVYVEIEVSEEDLSAGGSAGGSAGG [r11_862_TrROS_Hall]	3.21 ± 0.052	2.38 ± 0.058	2.88 ± 0.051
SAGGSAGGSAGMKKNEKLITELTFEGPDVYVKITIEKTFDPEGNKIYFKAKIEVFAPGELSAGGSAGGSAGG [r11_237_TrMRF]	4.06 ± 0.075	2.83 ± 0.097	3.67 ± 0.1
SAGGSAGGSAGMKKTVTTSTAPDGTLTTTTTVPTPDSTTTVVTTTTDPTTGTTTTTTTANSAGGSAGGSAGG [r11_107_JUSTAS]	-0.317 ± 0.095	-2 ± 0.54	-0.711 ± 0.34
SAGGSAGGSAGMKLTITVTFPDGTTPTFEVPPNSGDPAEVAAAIRAAHPDVVTITITPELSAGGSAGGSAGG [r11_311_JUSTAS]	0.27 ± 0.063	0.683 ± 0.039	0.448 ± 0.12
SAGGSAGGSAGMKTLKIASISTSTSPTNTTLTTVTITSEGVTTTVTFPPGTTLEEVLEQLSAGGSAGGSAGG [r11_1056_JUSTAS]	0.678 ± 0.11	0.53 ± 0.049	0.685 ± 0.1
SAGGSAGGSAGMKTSVTTPVTLPDGTPAVVTKYDGEVEIIDTGDGTSKVVPLSEVPPKLLSAGGSAGGSAGG [r11_155_JUSTAS]	0.422 ± 0.076	0.678 ± 0.035	0.604 ± 0.07
SAGGSAGGSAGMKTTTLEVSTDPSGYTTTKTKIEIINENTPSISTSTVVTAVTPPAPPIASAGGSAGGSAGG [r11_830_JUSTAS]	0.122 ± 0.11	0.133 ± 0.017	0.195 ± 0.057
SAGGSAGGSAGMKTTYDPDTNKLSITLPNGTVATYYLGTGVIEIPDEVSSKEDIKVEKAASAGGSAGGSAGG [r17_174_JUSTAS]	0.956 ± 0.17	0.321 ± 0.11	0.79 ± 0.15
SAGGSAGGSAGMKTVTVTVPPSAGVDAVREALAAQGMTVTSVSREGDTLTVTTEAPPELLSAGGSAGGSAGG [r11_672_JUSTAS]	0.294 ± 0.08	-0.866 ± 0.14	0.024 ± 0.13
SAGGSAGGSAGMKVTIEENEETGKFTIKVKTEDGEEKTIEIPKENLEEILAKLPPNVEIISAGGSAGGSAGG [r11_569_TrROS_Hall]	1.92 ± 0.036	2.52 ± 0.11	2.14 ± 0.17
SAGGSAGGSAGMKVTVTITYPGGKVTTLDGDPEEVKAALPSSLTDVKITVTDPATGKVAASAGGSAGGSAGG [r11_353_JUSTAS]	0.838 ± 0.032	-0.213 ± 0.06	0.635 ± 0.12
SAGGSAGGSAGMKVVVELEVTFDSEEEAEAVAKAIAEELGSEDVVVKVIRKPVELGPGLKSAGGSAGGSAGG [r17_285_JUSTAS]	0.891 ± 0.031	0.0891 ± 0.061	0.656 ± 0.051
SAGGSAGGSAGMKVVVTLPDRTVTIPVNGTLDEAKEAVIKRAEELFGKPIPIEEITMSGESAGGSAGGSAGG [r11_1028_JUSTAS]	-0.0243 ± 0.083	0.677 ± 0.03	0.408 ± 0.11
